Substitutions are numbered along the chain they refer to. In names and notes the source's numbering stands.
T1: TNFR1 (Homo sapiens, UniProt P19438)
T1 chain: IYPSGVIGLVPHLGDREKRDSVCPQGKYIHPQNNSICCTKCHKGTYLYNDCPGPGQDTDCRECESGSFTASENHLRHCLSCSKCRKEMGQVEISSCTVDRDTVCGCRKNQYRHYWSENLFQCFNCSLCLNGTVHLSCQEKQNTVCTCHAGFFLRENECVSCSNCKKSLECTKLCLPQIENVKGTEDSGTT

B1: E16R (designed binder)
chain: MTLQELLREEALRRARAEAFRYALELLAEKFPEQKEYLLDLAEEIESQIRSLSGVDVEDVRKFLDKEWAWVKELLAEHPAELAEVEAARAARLAELRAEVEAKVAA
B2: P79D (designed binder)
chain: B1 chain with R16E, P79D
B3: A69P (designed binder)
chain: B1 chain with R16E, A69P
B4: R61C (designed binder)
chain: B1 chain with R16E, R61C
B5: E29T (designed binder)
chain: B1 chain with R16E, E29T
B6: A69Y (designed binder)
chain: B1 chain with R16E, A69Y
B7: R92W (designed binder)
chain: B1 chain with R16E, R92W
B8: E81Y (designed binder)
chain: B1 chain with R16E, E81Y
B9: Y37F (designed binder)
chain: B1 chain with R16E, Y37F
B10: L3S (designed binder)
chain: B1 chain with L3S, R16E
B11: Y22I (designed binder)
chain: B1 chain with R16E, Y22I
B12: A83E (designed binder)
chain: B1 chain with R16E, A83E
B13: E58V (designed binder)
chain: B1 chain with R16E, E58V
B14: E33K (designed binder)
chain: B1 chain with R16E, E33K
B15: D56K (designed binder)
chain: B1 chain with R16E, D56K
B16: E44L (designed binder)
chain: B1 chain with R16E, E44L
B17: Q48I (designed binder)
chain: B1 chain with R16E, Q48I
B18: R97W (designed binder)
chain: B1 chain with R16E, R97W
B19: E43P (designed binder)
chain: B1 chain with R16E, E43P
B20: H78W (designed binder)
chain: B1 chain with R16E, H78W
B21: E95R (designed binder)
chain: B1 chain with R16E, E95R
B22: R14T (designed binder)
chain: B1 chain with R14T, R16E
B23: E86M (designed binder)
chain: B1 chain with R16E, E86M
B24: G54K (designed binder)
chain: B1 chain with R16E, G54K
B25: E29D (designed binder)
chain: B1 chain with R16E, E29D
B26: Q34E (designed binder)
chain: B1 chain with R16E, Q34E
B27: R14F (designed binder)
chain: B1 chain with R14F, R16E
B28: A105R (designed binder)
chain: B1 chain with R16E, A105R
B29: L82R (designed binder)
chain: B1 chain with R16E, L82R
B30: L38G (designed binder)
chain: B1 chain with R16E, L38G
B31: K35Q (designed binder)
chain: B1 chain with R16E, K35Q
B32: A90K (designed binder)
chain: B1 chain with R16E, A90K
B33: G54N (designed binder)
chain: B1 chain with R16E, G54N
B34: A88C (designed binder)
chain: B1 chain with R16E, A88C
B35: A87R (designed binder)
chain: B1 chain with R16E, A87R
B36: L52I (designed binder)
chain: B1 chain with R16E, L52I
B37: S53D (designed binder)
chain: B1 chain with R16E, S53D
B38: A106E (designed binder)
chain: B1 chain with R16E, A106E
B39: L74E (designed binder)
chain: B1 chain with R16E, L74E
B40: A87I (designed binder)
chain: B1 chain with R16E, A87I
B41: V55C (designed binder)
chain: B1 chain with R16E, V55C
B42: I45M (designed binder)
chain: B1 chain with R16E, I45M
B43: A94I (designed binder)
chain: B1 chain with R16E, A94I
B44: R50T (designed binder)
chain: B1 chain with R16E, R50T
B45: D59H (designed binder)
chain: B1 chain with R16E, D59H
B46: E33Y (designed binder)
chain: B1 chain with R16E, E33Y
B47: E67C (designed binder)
chain: B1 chain with R16E, E67C
B48: R89L (designed binder)
chain: B1 chain with R16E, R89L
B49: R89W (designed binder)
chain: B1 chain with R16E, R89W
B50: L3H (designed binder)
chain: B1 chain with L3H, R16E
B51: H78V (designed binder)
chain: B1 chain with R16E, H78V
B52: A17P (designed binder)
chain: B1 chain with R16E, A17P
B53: E5M (designed binder)
chain: B1 chain with E5M, R16E
B54: L12A (designed binder)
chain: B1 chain with L12A, R16E
B55: A15K (designed binder)
chain: B1 chain with A15K, R16E
B56: K66M (designed binder)
chain: B1 chain with R16E, K66M
B57: I45R (designed binder)
chain: B1 chain with R16E, I45R
B58: L82D (designed binder)
chain: B1 chain with R16E, L82D
B59: A80N (designed binder)
chain: B1 chain with R16E, A80N

Molecular target: T1, TNFR1
Assay: yeast display SC50

Row | Binder | apparent Kd (screen) [nM]
1 | B1 | 2.05
2 | B2 | 0.539
3 | B3 | 16.7
4 | B4 | 0.956
5 | B5 | 0.653
6 | B6 | 1.05
7 | B7 | 0.539
8 | B8 | 0.446
9 | B9 | 2.48
10 | B10 | 15.2
11 | B11 | 0.956
12 | B12 | 0.593
13 | B13 | 0.49
14 | B14 | 1.05
15 | B15 | 2.25
16 | B16 | 13.8
17 | B17 | 5.84
18 | B18 | 0.49
19 | B19 | 1.16
20 | B20 | 0.446

Row | Binder | apparent Kd (screen) [nM]
21 | B21 | 0.593
22 | B22 | 0.49
23 | B23 | 0.79
24 | B24 | 12.5
25 | B25 | 0.49
26 | B26 | 0.653
27 | B27 | 0.653
28 | B28 | 0.718
29 | B29 | 1.86
30 | B30 | 24.4
31 | B31 | 0.718
32 | B32 | 0.446
33 | B33 | 1.4
34 | B34 | 0.653
35 | B35 | 0.446
36 | B36 | 0.539
37 | B37 | 8.56
38 | B38 | 0.79
39 | B39 | 2.48
40 | B40 | 0.869

Row | Binder | apparent Kd (screen) [nM]
41 | B41 | 0.79
42 | B42 | 12.5
43 | B43 | 0.956
44 | B44 | 0.49
45 | B45 | 0.869
46 | B46 | 0.539
47 | B47 | 5.84
48 | B48 | 0.79
49 | B49 | 0.956
50 | B50 | 2.25
51 | B51 | 0.869
52 | B52 | 0.718
53 | B53 | 0.593
54 | B54 | 0.79
55 | B55 | 0.49
56 | B56 | 0.593
57 | B57 | 11.4
58 | B58 | 5.84
59 | B59 | 1.27

— paper PMC12416549 (2024)
